Test: soluble on expression in E. coli; label from the status in PepcDB or PDB records

Row | Sequence | soluble on expression in E. coli
1 | MGSDKIHHHHHHMDDQLNALRDLAIPFPITASFRQQARAYASQYFTQDTHERVYLNTLAVLVANAYFRLLNFQTNLTKAERWNAACRVWSEANEIELVGLGNLECRVITAGQQTIILPPETWADRIGYLFVEITSSEKVATLIGFLPAFDAETSGEEVAISTTGYAYADLKSMDEAMDYLTQQEASARSKTGEIDNLTRDFAAKKITYLRNWLNNVYDSDWEPAMRELSAATCKKKIQLVGQVFEMQLSVSQSNGAITVTVIVRLESGFLPIGIQVSVPDESEIYTETVSTPADLIRIPLEFSPGEEFWVELRWGETFTREYFIA | not soluble
2 | MAPGTAELEIDETLHLLRMVMQREFIHYLETLPGTKELFIDKCLLRPLDMIATSSDMKRHGVKRIMHFDLQKSPQVWNIEIDQRVFFLRPNVENARKIVEYVEESSENRSICVIWCNRQLEECDLAFESSGVIGHITQLSLNMCLLPLESDLFSLQHVESAQPDLFSVANMFVALQNLYGVIPTVYGLGSESKNLWNLVHALCSSNELRARPDQPISHLFLFDRQLDPVPVLLTGASYEGLLHEFFTIDCGKLAFPVDLRKQVQTGPLDFDWIEINPEEDKEAHQQNRGDTVKLDNCEDIFASIRNKHVTAALEFLHSKAKSIQKSIEKSSMIDDVADYRNFVEKDLRALKKDHKHCELHINACEMMMNKVKMEDYRTMFKLEHEMLLGTVTHEEYFDFVFERVPMRSCRDVVLSMMSLASLKLDGVPDDTYNEFVEMYLQKYGYEHMFELQNLRNSRVIYARRHIAHDRTISERARTWETLARKFRIVKGNEPMDMSNPSDMSYVFGARISPLLCKIVEDTIDHGWNQAEYERIIGKDKVLVEENTYIAADRRPDNRTRKAIMVFVNGGITYWEVAALRLLAIQKNFRILICTTHVIKKREYLEVRAKDASSVFGS | not soluble
3 | MGSDKIHHHHHHMAILQLGMAFDADAFSASVIGIAADVGSHDSGVHRHGKGQLLYAPQGCITFAWEDAIGILPPTKAVWIPPHTPHRAVMTNVVAYRSLYFDCSRIVAPASVTMVDVNPLLKALIDKMAFWPWDTPEASMTHSCALFWEEFYAARCHSFRLTIPVDRRFHGFRQQLFRPEFLPPDIDSLAATIGASTKTVTRLFKRDTGMSYQEWRQQWRLLKAIELLSGALPVSEVGFRLGFSSDSAFIAFFRKQTGKTPRHFMQG | not soluble
4 | MSSQKSGIVVQSDETHILISSSHDIFVADPDQNTKLGDSVSFTTWDIANNLKRASDIKPRNQIVESVVYEQDQSLRLRLKILGFYDFTKSQQRVFRTDFITQVREGEKFKYLPKNAFFGRQITVKLTHQKNSIVWELDEFEEPKEKTYSLIGQIYYTDFSDAYVYVPGYPEPFVISKETNFSRSEEGTWVKFLACTATASVKKSEGFQFLEKDLLDTNRNREIAIKCSRKDGIIQSHHFEKVIDKDNRLADYGVLSDFENVLIYVKVSMEGVSKKPSLILGQFQTSFNVNPTLTRDQKEALDPPKRILKKQSSLPREGSSRKQVTQIQNLSRKIETGPRINFLPNFNNQDHGSEFFSDNEEMDLVPPLENSHLRVDPVPVPIEPSIQQNRTTTTAPISAPARRISSNESRRENPNSQPAPSKMQNVFREDPEAEYKRPERSNADNDETSSTISACSSKSRIVRENPDANYERPARRLPTPPLEANDNLEHQSHDSSSTDGLRDTSPVGNNTNPRSGSPSCHSDTHSSVSSSLWITTINSSKDLEFVKNEYIKLWIEDQASQKEMKNLKAKRIELKMKQKKLKAELNDEKMKNQKLEEAAFNDRKEKAELKKKVSNLEQSAQNTQRTLQNQTRELNLYSTNRSWLRKEFNSTNLLEHLRRNYHDLSKRLEQFAFN | not soluble
5 | MVIHKINKLIATIKTQGIRKAIVKVAAQFKFSYKYYFIYTYNLNSSSPAIAVNEAINTNENDYSIKWWSESDFCKNKTTYLEKRSDMTDSYIENWLPLGHQTVVARSLPNNDIIGDMWLAFDNFPFPSKSKSLRDWAIENHYGYAFMAFVQPSHRGKKILPCLMNEQLKLVKDNNKKGLMALIMPKSKSSHKSFSSMGFKRVGKLHVLQLFSNNHTWISV | not soluble
6 | MADNVAGNDRLIWIDLEMTGLDTDRDSIIEIATIVTDAQLNVLAEGPELAIAHSLETLEAMDEWNRNQHRRSGLWQRVLDSQVTHAQAEAQTVAFLGEWIRAGASPMCGNSICQDRRFLHRQMSRLERYFHYRNLDVSTIKELARRWAPAVASGFAKSSAHTALSDVRDSIDELRHYRQFMGTLGGDNGGGVQN | soluble
7 | MSSSSPNSSRSEAVNGRVVVPTGGSRRENSGPARGPAGFSATVLPCDEATKAAFAKDWKDLEQENLSSADYYFNSYAHFGIHEEMIKDSVRTGCYQRAICQNAHLFANKVVLDVGSGTGILSLFAAKAGAKHVYGIECSEIVNIARKIVKENDMEDKVTFVQGKAEEVSLPVEKVDIIISEWMGYFLLYESMLDTVLFCRDKWLKPGGMIFPDKAALYVAAIEDADYKEEKIGYWGNVYGFNFSCVRRCVMEEPIVDTVDENAVSTTSCCVLKLDLLTCTKEDLDFCAPYEITLRRKDFLHAFIAWFDVWFSHCHKPVVLSTGPHCRYTHWKQTVFYMEDVLVADVGDKVEGMIAVKKSQKNPRDLDIKISYTFNPPHAPAAIENTQFYRLR | soluble
8 | MATIKIKFRTSSVKTKEGVLFYQIIHARVTRQINTGYKIFPSEWDKHLACIILPDNNDIRRRFLAQLTSRIAEDMHRLKNIISKLEHSGNPFTSGKIIELFRIPPINKYSFLSFAQDLIIQLKQIGKERTAESYASAYNSFKRFMDNNGDVLLEDVNSNLMIKYEIYLKNCGVCPNSCSYYMRNLRAIYNRAVEKELTQQQYPFKYVYTGIDKTVKRAVSLKTIRQIQNLDLSTNPLMDYARDIFMFSFYTRGMSFIDMAYLKKKDLQNGVLSYRRHKTDQQLFIKWEKPMQKIVDKYNTIESSYLLPIIKNNGKDPRREYKNASHLINRKLKVIGQMLEIPVTLTTYVARHAWANIAKSKNISISVISEAMGHDSENTTRIYLASLDASIVDKANSIILKSL | not soluble
9 | GSDHVDLREHVIDVPPQEVICKDNVVVTVDAVVYYQVIDPVKAVYNVSDFLMAIVKLAQTNLRAIIGEMELDETLSGRDIINARLREELDKITDRWGVKITRVEIQRIDPPKD | soluble
10 | MGSDKIHHHHHHGIGVNSSNRLGIDNFEFIRVLGKGSFGKVMLARVKETGDLYAVKVLKKDVILQDDDVECTMTEKRILSLARNHPFLTQLFCCFQTPDRLFFVMEFVNGGDLMFHIQKSRRFDEARARFYAAEIISALMFLHDKGIIYRDLKLDNVLLDHEGHCKLADFGMCKEGICNGVTTATFCGTPDYIAPEILQEMLYGPAVDWWAMGVLLYEMLCGHAPFEAENEDDLFEAILNDEVVYPTWLHEDATGILKSFMTKNPTMRLGSLTQGGEHAILRHPFFKEIDWAQLNHRQIEPPFRPRIKSREDVSNFDPDFIKEEPVLTPIDEGHLPMINQDEFRNFSYVSPELQP | not soluble
11 | MYFPIVALIGRYQDTGLDAPLTALAQMLTQAGRRVLVEAETARNAGVSGYPVADWDEIGRTATLAVVMGGDGTVLGAARHLAPYGVPLIGINHGRLGFITDIPLQDAHDALGRVLEGNYQAEDRMLLQGGVWRGEQQMYSASAVNDVVLNRAGRGGMIEVRVELDGAFMYTQRADGLIIATPTGSTAYSLSANGPILHPGMNAMVLVPVAPQTLSNRPIVIPDSGVLNMTLTAMGRVEIGASVHFDMQTWSDLQPGDRITVQRAPHIIRFVHPEGYSFFSTLRRKLHWNLMPQATDNLELEHHHHHH | not soluble
12 | MALKNVPFRSEVLAWNSDNLADYFRKLNYRDCEKAVKKYHIDGARFLNLTENDIQKFPKLRMPLLSKLSQDINKNEERRSIFTRKPQIPRFLEETESHEEDDGGWSSFEDDYESPNDDDPDGEDDGDYESPNEEEQALVDDAADYEPPPSNNEEALQSSILPPNSFHNTNSMYIDRPPTGKVSQQPPVPPLRPKPALPPLPTGRNHSPLSPPHPNHEEPSRSGNNKTAKLPAPSIDRSTKPPLDRSLAPLDREPFILGKKPPFSDKPSAPLGREHLPKIQKPPLPPAMDRHERNERLGPVTTRKPPVPRHGRGPDRRENDEDDVHQRPLPQPSLPSMSSNTFPSRSVQPSSKNTFPLAHMPGAFSESNIGFQQSASLPPYFSQGPGNRPPLRSEGRNLPLPVPNRPQPPSPGEEETPLDEEWYVSYITRPEAEAALRKINQDGTFLVRDSSKKTANNPYVLMVLYKDKVYNIQIRYQEESQVYLLGTGLRGKEDFLSVSDIIDYFRKMPLLLIDGKNRGSRYQCTLTHAAGCL | soluble
13 | MKKPKHDLTHVRHDPAHCLAPGLFRSLKRGDRKRCKLDVTYTFGEDESMRFVGFEPLGADDMRLLQGIVALGGPNGILLTPEPTSETGRQLRLFLEPRFEAIEQDGLVVRESLTKLLSETGMTDSGDNIKALKASLLRMSNVTILVTKGRRQAAFHLMSHAFDETDGRLWVALNPRIAEAILGHRPYARIDMAEVRVLQTDPARLMHQRLCGWIDPGKSGRVELDTLCGYVWPDEANAEAMKKRRQTARKALAELAAVGWVVNEYAKGKWEIKRPGPTATAPVYRRNVPLLPS | not soluble
14 | MTHSKDKKSHAFKGIGEKLNPTIYQVRFMKLDEPIRFESFPELKELGDWLSTSTHMWSCHSTMYKYNREEFEKKFLEITKLTADHVLISTGGVGFNFMSPGWRNSL | not soluble
15 | GIQVRDCMIPRNEMIACELQTDIEVLKTTFIDTGLSKIIIYRQNIDDVVGYIHSSEMFRGQDWQKRINTTVFVPESMYANKLMRLLMQRKKSIAIVIDELGGTAGMVTLEDLVEEIFGDIEDEH | not soluble
16 | MTVAKAIFIKCGNLGTSMMMDMLLDERADREDVEFRVVGTSVKMDPECVEAAVEMALDIAEDFEPDFIVYGGPNPAAPGPSKAREMLADSEYPAVIIGDAPGLKVKDEMEEQGLGYILVKPDAMLGARREFLDPVEMAIYNADLMKVLAATGVFRVVQEAFDELIEKAKEDEISENDLPKLVIDRNTLLEREEFENPYAMVKAMAALEIAENVADVSVEGCFVEQDKERYVPIVASAHEMMRKAAELADEARELEKSNDAVLRTPHAPDGKVLSKRKFMEDPE | soluble
17 | RNKVKYIELLGKELEILKGGDLNYQITIRGNDELAALAGEMDSMRRAIRSRQEEEELAHLANRGIVTAMSHDLRTPLTALMGYLDILSIEEDPGKKQKYLSVCRDKACQIKSLSDKLFEYFLVYSSDQDELHADEVNGAEFVGQIVEESLFDLENEGIEVARRAGEITCRLLVDVDLMRRVFGNLFSNILKYADRSHAVQAEYGETKDELVIRLRNSVAADASERESSNIGLKTCETILKRHGGTFLYQKDAGMFEAEVRIPCIRE | not soluble
18 | MAEVTILGLGNLLWADEGFGVRAAEKLFEQYADNEKVDVVDGGTQGLALLPWLQQTEKLLIMDAIDFGMAPGSLAMFRDEQVPAYLTAKKLSLHQTSFSEVLALLQLTGGQLSEIVLIGVQPECLDDYGGSLTPQVKAQLMPAVYLAQEVLAQWGITASSAALPTERLNHYSLCMERYEDERPDAQSACRVGDIRVLQREKS | not soluble
19 | MGSDKIHHHHHHMGKGTNPTIGIALGSGAAKGWAHIGVLNGLAAMGIKPDKVAGCSVGALVGAAYAHNHLAELEEWVRSFSSWDVLGLMDIRWRKGGLIGGEKVFDVLQSRIGDVNIEDLEYPFAAIATDLYSGQEIWFRHGDLRQAVRASCSMPGILAPVRQGERWLVDGAVVNPVPVSVSRAMGVDIVIAVDLHGFHSGRLQVLPVNMTSHRATKEDTEMPARQETGFMDLFARGREYVSNLTDKFSLGTKSNPGMIAVMSQSMGILEQRHKRARLMGDPPDICIVPEVANIGTMEFHRADEAIAAGEAAVAKVAHLIEAAIWKD | not soluble
